{"source": "the DeepSol protein solubility set"}
{"experiment": "soluble on expression in E. coli; label from the status in PepcDB or PDB records"}
{"sequence": "MFRLLFVSPRIAPNTGNAIRTCAATGCELHLVEPLGFDLSEPKLRRAGLDYHDLASVTVHASLAHAWEALSPARVFAFTAQATTLFTNVGYRAGDVLMFGPEPTGLDEATLADTHITGQVRIPMLAGRRSLNLSNAAAVAVYEAWRQHGFAGAV", "soluble on expression in E. coli": "not soluble"}
{"sequence": "MFRQLKKNLVATLIAAMTIGQVAPAFADSADTLPDMGTSAGSTLSIGQEMQMGDYYVRQLRGSAPLINDPLLTQYINSLGMRLVSHANSVKTPFHFFLINNDEINAFAFFGGNVVLHSALFRYSDNESQLASVMAHEISHVTQRHLARAMEDQQRSAPLTWVGALGSILLAMASPQAGMAALTGTLAGTRQGMISFTQQNEQEADRIGIQVLQRSGFDPQAMPTFLEKLLDQARYSSRPPEILLTHPLPESRLADARNRANQMRPMVVQSSEDFYLAKARTLGMYNSGRNQLTSDLLDEWAKGNVRQQRAAQYGRALQAMEANKYDEARKTLQPLLAAEPGNAWYLDLATDIDLGQNKANEAINRLKNARDLRTNPVLQLNLANAYLQGGQPQEAANILNRYTFNNKDDSNGWDLLAQAEAALNNRDQELAARAEGYALAGRLDQAISLLSSASSQVKLGSLQQARYDARIDQLRQLQERFKPYTKMLEHHHHHH", "soluble on expression in E. coli": "soluble"}
{"sequence": "MFRREIQERENWRELARQFGFGFHSMYGQPYWDESAYYQFTLEQIEHDLESPTEELHQMCLSIVDEVVRCEQLLTKCAIPELMWEQVASSWQRKEPSLYSRLDFAYNGTSPAKLLENNADTPTSLFETGFWQWVWLEDVVNKGRIHQAADQFNILQDFLIERFAEIAKYQPGQTLHFSCCKYTEEDKATVQYLEDCAREVGLATAFVYVEDIGVTEDGKFVDVDRRAIRWMFKLYPWEFMFEEEYAKYLATANVNWLEPMWKSILSNKALLPLLWERFPNHPNLLPAYFANDPNASCLNDYVIKPLFSREGANIEIVKDGKRLVKTPGPYESKFNIVQKYHPLPKFGQNHTLIGSWLVNDRAAGISIREDSSLVTQDMARYIPHVILT", "soluble on expression in E. coli": "not soluble"}
{"sequence": "MFSPLECRLAVACKFQDDRYYKLFHQYFDLLAQVHSVVETMDGLWMLRVWRAQKFGPESIKERRERQLFHVTQFSFKRYIVPPNPRIGKAIEEFGKEYLIEINVYDEHRADLVSLNSGNFVAIQNVHAASTPHREIQILHGGGEAYQRGISTVPVDFEVDAFQNFKRKVESVLENVLYDENFIEFQQPEEVTENRVPEEPQLNIHKDPLPSDLPQ", "soluble on expression in E. coli": "soluble"}
{"sequence": "MFTKRHRITLLFNANKAYDRQVVEGVGEYLQASQSEWDIFIEEDFRARIDKIKDWLGDGVIADFDDKQIEQALADVDVPIVGVGGSYHLAESYPPVHYIATDNYALVESAFLHLKEKGVNRFAFYGLPESSGKRWATEREYAFRQLVAEEKYRGVVYQGLETAPENWQHAQNRLADWLQTLPPQTGIIAVTDARARHILQVCEHLHIPVPEKLCVIGIDNEELTRYLSRVALSSVAQGARQMGYQAAKLLHRLLDKEEMPLQRILVPPVRVIERRSTDYRSLTDPAVIQAMHYIRNHACKGIKVDQVLDAVGISRSNLEKRFKEEVGETIHAMIHAEKLEKARSLLISTTLSINEISQMCGYPSLQYFYSVFKKAYDTTPKEYRDVNSEVML", "soluble on expression in E. coli": "soluble"}
{"sequence": "MFVEALKRQNPALISAALSLWQQGKIAPDSWVIDVDQILENGKRLIETARLYGIELYLMTKQFGRNPWLAEKLLALGYSGIVAVDYKEARVMRRAGLPVAHQGHLVQIPCHQVADAVEQGTDIITVFTLDKAREVSAAAVKAGRVQPVLLKVYSDDDFLYPGQESGFVQHSLHEVIAEIKKLPGLHLAGLTHFPCLLWDEAAGKVLPTPNLHTLVQARDQLAKSGIAIEQLNVPSATSCTSLPLLAEYGATHAEPGHALTGTIPANQQGDQPERIAMLWLSEISHHFRGDSYCYGGGYYRRGHAQHALVFTPENQKITETNLKTVDDSSIDYTLPLAGEYPVSSAVVLCFRTQIFVTRSDVVLVSGIQRGEPEIVGRYDSLGNPLEA", "soluble on expression in E. coli": "not soluble"}
{"sequence": "MFVQTTNQSNTLSNFILTCAFPAGAPVTNYPPSLSHTSSPGSSVYEASTKTEAVHKLESYQLQASRDPCTIPDELREEMKRMKRQEGAFKTALCLSHKRGKTCIYGEQCKFAHGVHELRCQQAKKNHRNYKTVLCDKFTTTGYCKYGIRCQFIHRSMDATNVTRPIDTADFKLDVQSDLSRAFALDSSSFLPNWHCSALLN", "soluble on expression in E. coli": "not soluble"}
{"sequence": "MGAGSQTTGAGQKKVQTITVGTGTQFPNICFIDEKGDLTGYDVELIKELDKRLPHYKFTFKTMEFSNLLVSLGQHKVDIVAHQMEKSKEREKKFLFNKVAYNHFPLKITVLQNNDTIRGIEDLKGKRVITSATSNGALVLKKWNEDNGRPFEIAYEGQGANETANQLKSGRADATISTPFAVDFQNKTSTIKEKTVGNVLSNAKVYFMFNKNEQTLSDDIDKALQEIIDDGTLKRLSLKWLGDDYSKEQYLEHHHHHH", "soluble on expression in E. coli": "soluble"}
{"sequence": "MGANGSTEDYNAIAEETRNYQIQEAARRKEHLEALERQDAKRRETLAETTRAQLAAAEAEQKRKDEMQQKMMESNLAAQVARNKRIDNAQNQQNLNIEKEIENSNNWLDKQRTANQAVMAQRYTDHQNVLTREKERLTETEIRLENNLVDAKKMLENTQNQFNDDKIGYHEKKVQQMNENASKIELLVSQTTNLVLEQEKNDIVHKLAIQGMEQRTILNRGAIIQAQSLDSVEREFIDAVNSTRQKGNEVANSISRMGSYAFQLKPEDPVWSRTSQVAYCKKEIQKVDLLLEVLSDNTEEISKQRENRNQEVLRCHAVACLIQNAITTVRNSLNQFGASLQENTFTNCIGYYTDLLEKNKTLTDVIVQLPAVSRSNHTTSAIMYSSQRFAIDVQNDRLALEQKGQLALQNMINGNGGNTT", "soluble on expression in E. coli": "not soluble"}
{"sequence": "MGARCSKLSVCWWPPHFKSPLLENGAAADDGSGVPVFAEYSLDELRVATDGFSPERIVSEHGEKAPNVVYRGTLFSTGRTVAIKRFGRSAWPDSRQFLEEAMAVGQLRSVRLANLIGCCCENGERLLVAEFMPHETLAKHLFHWETKPLSWAMRVRAAFYVAQALEYCSSKGRALYHDLHAYRVLFDVDGNPRLSCFGLMKNSRDGKSYSTNLAFTPPEYLKTGRVIPESVVYSFGTILLDLLSGKHIPPSHALDLIRGKNYLVLMDSCLEGHVSSSDGTELIRLASRCLQYEGRDRPNLKSVVSALGNLQKDASAPSHALLGIQHDKENTERISLSAIAKVYARADLDEVHEMLENDGYCEDERATFEVSFHSWTGQQVSDSILVKKHGDSAFQSKDFATAVECYSRFIDTGVMVSPTMLARRSFVYMVLGKLQEGLADAKKAADISPEWPTAHYLQGMAYLAMGMEPEGHEELKQGAALEAERNAR", "soluble on expression in E. coli": "soluble"}
{"sequence": "MGARQRMVASKGAVLSMLMDAYQKRDRVGLIAFKGDSAELLLPPTSSIELAQKYLQEMPTGGKTPISRGLVKGYEIIKSELRRDPDTCPFMVLISDGRANVSMNGEPPLHEIITIASRLKEEGIQSAVIDTESSMIKFGFAQQISTALGATYLTLENLKADSIVNAVRASAPFEIMMHPGVSSV", "soluble on expression in E. coli": "not soluble"}
{"sequence": "MGAVVVKDLRKRIGKKEILKGISFEIEEGEIFGLIGPNGAGKTTTLRIISTLIKPSSGIVTVFGKNVVEEPHEVRKLISYLPEEAGAYRNMQGIEYLRFVAGFYASSSSEIEEMVERATEIAGLGEKIKDRVSTYSKGMVRKLLIARALMVNPRLAILDEPTSGLDVLNAREVRKILKQASQEGLTILVSSHNMLEVEFLCDRIALIHNGTIVETGTVEELKERYKAQNIEEVFEEVVKCSENF", "soluble on expression in E. coli": "not soluble"}
{"sequence": "MGCMIQSFRCKSTQAMFEGECPQRFSAIQAVAERKLAQLEAAQTLDFLRSPPGNRLEKLAGDREGQWSIRINAQWRICFTWSDLDPADVEIVDYH", "soluble on expression in E. coli": "not soluble"}
{"sequence": "MGCSGGDATACANLAQMYENKKNADSNDKENALQLYAVACQGGDMLACNNLGWMFANGSGVPKDYYKAISYYKFSCENGNDMGCYNLGLMSNVNNIYGIDKAQLSQVDLNYLACNAGDMMGCANLGWIYANGDLGAPLNNHYAAKYFQMACDGGILGSCNNLGVLYQKGLGVPQDDQRALDLFSYACDNGFESSCRNYGNFKEHLLRVNPNYGRLFMPYNSYDIPLEHHHHHH", "soluble on expression in E. coli": "not soluble"}
{"sequence": "MGDIMRPIPFEELLTRIFDEYQQQRSIFGIPEQQFYSPVKGKTVSVFGETCATPVGPAAGPHTQLAQNIVTSWLTGGRFIELKTVQILDRLELEKPCIDAEDECFNTEWSTEFTLLKAWDEYLKAWFALHLLEAMFQPSDSGKSFIFNMSVGYNLEGIKQPPMQQFIDNMMDASDHPKFAQYRDTLNKLLQDDAFLARHGLQEKRESLQALPARIPTSMVHGVTLSTMHGCPPHEIEAICRYMLEEKGLNTFVKLNPTLLGYARVREILDVCGFGYIGLKEESFDHDLKLTQALEMLERLMALAKEKSLGFGVKLTNTLGTINNKGALPGEEMYMSGRALFPLSINVAAVLSRAFDGKLPISYSGGASQLTIRDIFDTGIRPITMATDLLKPGGYLRLSACMRELEGSDAWGLDHVDVERLNRLAADALTMEYTQKHWKPEERIEVAEDLPLTDCYVAPCVTACAIKQDIPEYIRLLGEHRYADALELIYQRNALPAITGHICDHQCQYNCTRLDYDSALNIRELKKVALEKGWDEYKQRWHKPAGSGSRHPVAVIGAGPAGLAAGYFLARAGHPVTLFEREANAGGVVKNIIPQFRIPAELIQHDIDFVAAHGVKFEYGCSPDLTIEQLKNQGFHYVLIATGTDKNSGVKLAGDNQNVWKSLPFLREYNKGTALKLGKHVVVVGAGNTAMDCARAALRVPGVEKATIVYRRSLQEMPAWREEYEEALHDGVEFRFLNNPERFDADGTLTLRVMSLGEPDEKGRRRPVETNETVTLLVDSLITAIGEQQDTEALNAMGVPLDKNGWPDVDHNGETRLTDVFMIGDVQRGPSSIVAAVGTARRATDAILSRENIRSHQNDKYWNNVNPAEIYQRKGDISITLVNSDDRDAFVAQEAARCLECNYVCSKCVDVCPNRANVSIAVPGFQNRFQTLHLDAYCNECGNCAQFCPWNGKPYKDKITVFSLAQDFDNSSNPGFLVEDCRVRVRLNNQSWVLNIDSKGQFNNVPPELNDMCRIISHVHQHHHYLLGRVEV", "soluble on expression in E. coli": "soluble"}
{"sequence": "MGDTGKLGRIIRHDAFQVWEGDEPPKLRYVFLFRNKIMFTEQDASTSPPSYTHYSSIRLDKYNIRQHTTDEDTIVLQPQEPGLPSFRIKPKDFETSEYVRKAWLRDIAEEQEKYAAERD", "soluble on expression in E. coli": "soluble"}
{"sequence": "MGEAAKDQTEEVIQAWYLDNKEEDQKLPHHKDPKEFVSLDKLAELGVLCWRLDADNYETDEELKRIRESRGYSYMDLCEVCPEKLPNYEEKVKMFFEEHLHIDEEIRYCLAGSGYFDVRDLNDIWIRVWVKKGGLIVFPAGIYHRFTVDSDNYMKAMRLFVGGPVWTAYNRPHDHLPARKAYMKKFLKVIGDRNIDASA", "soluble on expression in E. coli": "soluble"}
{"sequence": "MGENVLICLCGSVNSINISHYIIELKSKFDEVNVIASTNGRKFINGEILKQFCDNYYDEFEDPFLNHVDIANKHDKIIILPATSNTINKIANGICDNLLLTICHTAFEKLSIFPNMNLRMWENPVTQNNIRLLKDYGVSIYPANISESYELASKTFKKNVVAPEPYKVLEFI", "soluble on expression in E. coli": "not soluble"}
{"sequence": "MGEQPIFSTRAHVFQIDPNTKKNWVPTSKHAVTVSYFYDSTRNVYRIISLDGSKAIINSTITPNMTFTKTSQKFGQWADSRANTVYGLGFSSEHHLSKFAEKFQEFKEAAR", "soluble on expression in E. coli": "soluble"}
